In patent US20150141617A1, “PRODUCTION AND PURIFICATION OF ACTIVE EUKARYOTIC FORMYLGLYCINEGENERATING ENZYME (FGE) VARIANTS” (Universität Bielefeld, priority 2013, published 2015):

Assays:
[1] = molecular target: T1, 23 amino acid substrate peptide Ac-MTDFYVPVSLCTPSRAALLTGRS-NH2 (SEQ ID NO: 46)
T1 chain: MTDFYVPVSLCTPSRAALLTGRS

[2] = test system: 23-aa long substrate peptide Ac-MTDFYVPVSLCTPSRAALLTGRS-NH2; assay: In vitro FGE activity assay (MALDI-ToF MS) with purified recombinant FGE from insect cells; format: biochemical; details: for DTT concentration of maximal activity: 0-15 mM DTT, pH 9.3, 15 min 37° C.; for pH of maximal activity: MTGC buffer pH 6.5-11.0
Protocol: a) fl-FGE-R69A/R72A (SEQ ID NO: 4) is active and e.g. generates FGly within a 23-aa long substrate peptide 16 pmol of the 23 amino acid (aa) long peptide Ac-[…]-NH2 (SEQ ID NO:46) were incubated with 12 ng of fl-FGE-R69A/R72A for 20 min at 37° C. under assay conditions (50 mM Tris, 67 mM NaCl, 15 μM CaCl2, 0.33 mg/mL BSA, 2 mM DTT, pH 9.3 in a total volume of 30 μL).
The reaction was stopped by adding 3 μL of 20% trifluoroacetic-acid (TFA), immediately followed by vortexing and by a short centrifugation at 10000×g. The peptide was purified and concentrated by C18-Zip-Tip treatment. Therefore the Zip-Tip was prepared by pipetting three times 10 μL of 50% acetonitrile, 0.05% TFA in water and three times 10 μL 0.1% TFA in water. The 33 μL sample was pipetted 10 times up and down. The bound peptide was washed by pipetting 10 times 10 μL 0.1% TFA in water and was eluted in 10 μL 50% acetonitrile, 0.05% TFA in water by pipetting 10 times up and down. For MS-analysis the following matrix was prepared freshly: 40 μL of a saturated α-cyano-hydroxycinnamic acid solution in aceton were added to 10 μL of a solution containing 10 mg/mL nitrocellulose in 50% Aceton/50% Isopropanol (v/v). 0.5 μL of the matrix were spotted onto a polished steel target and 1 μL of the purified sample was added. The dried sample spot was analyzed by MALDI-ToF mass spectrometry using the Ultra flextreme spectrometer from Bruker Daltronics. The cysteine containing substrate peptide (2526.28 [M+H]^+) and the FGly containing product peptide (2508.29 [M+H]^+) were detected.
b) fl-FGE-R69A/R72A (SEQ ID NO:4) is able to generate FGly by using GSH as reductant:10 times stock solutions of DTT and GSH were prepared in 20 mM Tris pH 9.3. For the reaction, 13 ng of Baculo-fl-FGE were incubated with 16 pmol of the 23 aa-long substrate peptide, 2 mM DTT or 5 mM reduced glutathione for 15 min at 37° C. under assay conditions (50 mM Tris, 67 mM NaCl, 15 μM CaCl2, 0.33 mg/mL BSA, pH 9.3 in a total volume of 30 μL). The reactions were stopped and prepared further for MS-analysis as described above. The ratio of the intensity of the FGly-product peptide divided by the sum of the substrate and product intensities multiplied with 100 yields %-turnover of the substrate peptide. Based on that, specific activities were calculated.
The dependence of FGly-generating activity of recombinant fl-FGE-R69A/R72A on the reducing agents DTT and GSH were analyzed at pH 9.3 under standard assay conditions (FGE and substrate peptide were incubated at 37° C. in 50 mM Tris/HCl, 67 mM NaCl, and 0.33 mg/ml BSA in 30 μl volume. The reaction was started by addition of substrate) using a MALDI-mass spectrometry based in vitro activity assay (Ennemann et al., 2013 and FIG. 7).
The pH-dependence for in vitro activity of recombinant fl-FGE-R69A/R72A and Δ72-FGE-wt was analyzed under optimal DTT and GSH concentrations. Accordingly, the activity of recombinant fl-FGE-R69A/R72A in the presence of 2 mM DTT, under standard assay conditions, was measured in buffers of pH ranging from pH 6.5 to 11.0 (FIG. 19A). […] In the presence of 5 mM GSH, the maximal activity was also observed at pH 9.3 and a very similar activity profile ranging from pH 7.5 to 11 (FIG. 19B). […] In summary, fl-FGE-R69A/R72A requires less alkaline conditions for optimum activity than Δ72-FGE-wt.

[3] = Stability of purified recombinant FGE upon storage (SDS-PAGE, Coomassie staining or western blotting); format: physicochemical
Protocol: Purified enzymes are preferably stored frozen at −20° C. or −80° C., but it is known that the freeze-thaw cycle can lead to a decrease in the stability of proteins and/or accompanied loss of enzymatic activity. To minimize this effect, it is common to add stabilizing agents to preserve the stability and functionality of proteins during long-term storage. Analyses of conditions that affect the stability of purified recombinant fl-FGE-R69A/R72A and Δ72-FGE-wt were performed. The stability was assessed by analyzing the purified protein by SDS-PAGE and subsequently visualized by Coomassie staining or western blotting using FGE anti-serum as described above.
Generation of truncated FGE was increasingly detected upon removing the imidazole by size exclusion chromatography (Panel SEC, FIG. 17A). To gain further insights, aliquots of the purified fraction from size exclusion chromatography were incubated at 4° C. for either 3.5 h or 20 h in the presence of various additives like NaCl, imidazole, arginine and glycerol and later assessed by western blot using FGE anti-serum.

B1: Δ72-FGE (SEQ ID NO: 6), produced in High Five insect cells (protein)
chain: ADLGSSMEFEANAPGPVPGERQLAHSKMVPIPAGVFTMGTDDPQIKQDGEAPARRVTIDAFYMDAYEVSNTEFEKFVNSTGYLTEAEKFGDSFVFEGMLSEQVKTNIQQAVAAAPWWLPVKGANWRHPEGPDSTILHRPDHPVLHVSWNDAVAYCTWAGKRLPTEAEWEYSCRGGLHNRLFPWGNKLQPKGQHYANIWQGEFPVTNTGEDGFQGTAPVDAFPPNGYGLYNIVGNAWEWTSDWWTVHHSVEETLNPKGPPSGKDRVKKGGSYMCHRSYCYRYRCAARSQNTPDSSASNLGFRCAADRLPTMDSGRGSHHHHHHH
conversion of the Cys substrate peptide to the FGly product peptide (MALDI-ToF MS), DTT as reductant [1]: The Δ72-FGE (SEQ ID NO: 6) variant also converts the cysteine-containing substrate peptide to the FGly-containing product peptide in presence of the reductant DTT

B2: dimeric FGE: disulfide-bridged dimeric form of recombinant fl-FGE-R69A/R72A separated by size exclusion chromatography (protein)
chain: ADEFSQEAGTGAGAGSLAGSCGCGTPQRPGAHGSSAAAHAYSAEANAPGPVPGERQLAHSKMVPIPAGVFTMGTDDPQIKQDGEAPARRVTIDAFYMDAYEVSNTEFEKFVNSTGYLTEAEKFGDSFVFEGMLSEQVKTNIQQAVAAAPWWLPVKGANWRHPEGPDSTILHRPDHPVLHVSWNDAVAYCTWAGKRLPTEAEWEYSCRGGLHNRLFPWGNKLQPKGQHYANIWQGEFPVTNTGEDGFQGTAPVDAFPPNGYGLYNIVGNAWEWTSDWWTVHHSVEETLNPKGPPSGKDRVKKGGSYMCHRSYCYRYRCAARSQNTPDSSASNLGFRCAADRLPTMDSGRGSHHHHHHH
DTT concentration of maximal activity [2]: 0.1 to 1 mM | DTT concentration for optimal activity under in vitro conditions ([2]; pH 9.3): 0.1 to 2 mM | stability of dimeric vs monomeric form [3]: more stable than monomeric fl FGE forms

B3: fl-FGE-R69A/R72A: human full length FGE variant, Arginine-69 and Arginine-72 converted to Alanine, non-cleavable furin motif, SEQ ID NO:4 (protein)
chain: ADEFSQEAGTGAGAGSLAGSCGCGTPQRPGAHGSSAAAHAYSAEANAPGPVPGERQLAHSKMVPIPAGVFTMGTDDPQIKQDGEAPARRVTIDAFYMDAYEVSNTEFEKFVNSTGYLTEAEKFGDSFVFEGMLSEQVKTNIQQAVAAAPWWLPVKGANWRHPEGPDSTILHRPDHPVLHVSWNDAVAYCTWAGKRLPTEAEWEYSCRGGLHNRLFPWGNKLQPKGQHYANIWQGEFPVTNTGEDGFQGTAPVDAFPPNGYGLYNIVGNAWEWTSDWWTVHHSVEETLNPKGPPSGKDRVKKGGSYMCHRSYCYRYRCAARSQNTPDSSASNLGFRCAADRLPTMDSGRGSHHHHHHH
modifications: double fl FGE variant R69A / R72A
specific activity in presence of the control reductant DTT ([2]; 2 mM DTT, 15 min 37° C., pH 9.3, 4 measurements): 24.1±1.7 mU/mg | pH of maximal activity ([2]; 2 mM DTT): 9.3 | FGly generation in substrate peptide in presence of DTT ([2]; 2 mM DTT, pH 9.3, 37° C.): is active | pH of maximal activity ([2]; 5 mM GSH): 9.3 | specific activity in presence of GSH ([2]; 5 mM reduced glutathione, 15 min 37° C., pH 9.3, 4 measurements): 15.6±1.3 mU/mg | FGly generation using GSH as reductant ([2]; 5 mM reduced glutathione, pH 9.3): active in presence of GSH | dependence of activity on reducing agent (DTT or GSH) ([2]; in vitro, pH 9.3): fully functional in the presence of either DTT or glutathione (GSH) | activity in the absence of externally added reducing agents ([2]; pH 9.3): very low activity | specific activity ([2]; purified from Baculovirus expression system (Example 7)): 33 mU/mg | stability with added imidazole ([3]; 250 mM imidazole, one freeze-thaw cycle, two weeks at −80° C.): more stable | truncated fragment (~37 kDa) of the total protein after thawing ([3]; Ni-NTA fractions containing 250-500 mM imidazole, long-term storage −80° C.): less than 5% | stability after long-term storage ([3]; Ni-NTA fractions containing 250-500 mM imidazole, −80° C.): highly stable | truncation on prolonged incubation ([3]; SEC fraction (imidazole removed), 4° C., 3.5 h or 20 h): led to generation of truncated fragments | truncation on incubation with additive ([3]; SEC fraction, 4° C., 250 mM imidazole or 850 mM NaCl): prevented further increase of FGE truncation

B4: monomeric FGE (protein)
chain: ADEFSQEAGTGAGAGSLAGSCGCGTPQRPGAHGSSAAAHAYSAEANAPGPVPGERQLAHSKMVPIPAGVFTMGTDDPQIKQDGEAPARRVTIDAFYMDAYEVSNTEFEKFVNSTGYLTEAEKFGDSFVFEGMLSEQVKTNIQQAVAAAPWWLPVKGANWRHPEGPDSTILHRPDHPVLHVSWNDAVAYCTWAGKRLPTEAEWEYSCRGGLHNRLFPWGNKLQPKGQHYANIWQGEFPVTNTGEDGFQGTAPVDAFPPNGYGLYNIVGNAWEWTSDWWTVHHSVEETLNPKGPPSGKDRVKKGGSYMCHRSYCYRYRCAARSQNTPDSSASNLGFRCAADRLPTMDSGRGSHHHHHHH
DTT concentration of maximal activity [2]: 2 mM | DTT concentration for optimal activity under in vitro conditions ([2]; pH 9.3): 1 to 10 mM
